Key:
Assay in all cases: bead flow cytometry, AUC minus CD4
[1] = target: T1, HCoV-NL63 spike protein (Sino Biological 40604-V08B) (HCoV-NL63, UniProt Q6Q1S2 19-1296)
T1 sequence: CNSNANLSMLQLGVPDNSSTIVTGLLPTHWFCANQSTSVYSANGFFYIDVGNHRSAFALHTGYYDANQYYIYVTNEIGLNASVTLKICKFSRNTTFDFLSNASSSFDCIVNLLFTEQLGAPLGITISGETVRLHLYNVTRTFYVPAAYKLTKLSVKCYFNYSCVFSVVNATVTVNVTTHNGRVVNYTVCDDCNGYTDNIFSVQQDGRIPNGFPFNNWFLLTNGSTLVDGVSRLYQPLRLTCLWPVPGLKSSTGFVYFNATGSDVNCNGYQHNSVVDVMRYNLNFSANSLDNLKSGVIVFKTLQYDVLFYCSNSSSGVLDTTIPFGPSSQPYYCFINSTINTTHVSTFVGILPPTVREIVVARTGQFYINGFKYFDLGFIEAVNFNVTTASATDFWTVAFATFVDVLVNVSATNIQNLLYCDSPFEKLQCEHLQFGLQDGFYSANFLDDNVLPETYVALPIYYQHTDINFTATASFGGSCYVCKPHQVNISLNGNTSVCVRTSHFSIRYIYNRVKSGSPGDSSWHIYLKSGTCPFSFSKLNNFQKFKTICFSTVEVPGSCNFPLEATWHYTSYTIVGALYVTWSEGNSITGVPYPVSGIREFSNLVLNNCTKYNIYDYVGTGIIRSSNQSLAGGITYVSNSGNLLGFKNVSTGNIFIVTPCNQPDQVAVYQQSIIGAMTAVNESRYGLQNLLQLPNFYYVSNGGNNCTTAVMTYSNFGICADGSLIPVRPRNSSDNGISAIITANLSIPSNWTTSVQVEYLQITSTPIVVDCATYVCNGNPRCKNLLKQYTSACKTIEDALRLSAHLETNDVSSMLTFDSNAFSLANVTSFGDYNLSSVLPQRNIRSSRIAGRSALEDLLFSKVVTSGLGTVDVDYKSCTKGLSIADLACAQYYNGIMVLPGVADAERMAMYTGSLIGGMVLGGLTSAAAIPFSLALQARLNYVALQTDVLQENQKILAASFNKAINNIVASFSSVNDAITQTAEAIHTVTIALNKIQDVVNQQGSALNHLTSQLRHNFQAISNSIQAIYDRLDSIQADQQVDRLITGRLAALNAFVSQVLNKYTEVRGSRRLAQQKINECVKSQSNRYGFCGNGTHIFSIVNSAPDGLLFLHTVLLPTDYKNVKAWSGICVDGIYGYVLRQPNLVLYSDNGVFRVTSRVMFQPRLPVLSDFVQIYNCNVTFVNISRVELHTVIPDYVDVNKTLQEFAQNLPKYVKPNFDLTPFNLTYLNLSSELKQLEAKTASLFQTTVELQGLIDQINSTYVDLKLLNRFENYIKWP

[2] = target: T2, HCoV-229E spike protein (Sino Biological 40605-V08B) (HCoV-229E, UniProt P15423 16-1115)
T2 sequence: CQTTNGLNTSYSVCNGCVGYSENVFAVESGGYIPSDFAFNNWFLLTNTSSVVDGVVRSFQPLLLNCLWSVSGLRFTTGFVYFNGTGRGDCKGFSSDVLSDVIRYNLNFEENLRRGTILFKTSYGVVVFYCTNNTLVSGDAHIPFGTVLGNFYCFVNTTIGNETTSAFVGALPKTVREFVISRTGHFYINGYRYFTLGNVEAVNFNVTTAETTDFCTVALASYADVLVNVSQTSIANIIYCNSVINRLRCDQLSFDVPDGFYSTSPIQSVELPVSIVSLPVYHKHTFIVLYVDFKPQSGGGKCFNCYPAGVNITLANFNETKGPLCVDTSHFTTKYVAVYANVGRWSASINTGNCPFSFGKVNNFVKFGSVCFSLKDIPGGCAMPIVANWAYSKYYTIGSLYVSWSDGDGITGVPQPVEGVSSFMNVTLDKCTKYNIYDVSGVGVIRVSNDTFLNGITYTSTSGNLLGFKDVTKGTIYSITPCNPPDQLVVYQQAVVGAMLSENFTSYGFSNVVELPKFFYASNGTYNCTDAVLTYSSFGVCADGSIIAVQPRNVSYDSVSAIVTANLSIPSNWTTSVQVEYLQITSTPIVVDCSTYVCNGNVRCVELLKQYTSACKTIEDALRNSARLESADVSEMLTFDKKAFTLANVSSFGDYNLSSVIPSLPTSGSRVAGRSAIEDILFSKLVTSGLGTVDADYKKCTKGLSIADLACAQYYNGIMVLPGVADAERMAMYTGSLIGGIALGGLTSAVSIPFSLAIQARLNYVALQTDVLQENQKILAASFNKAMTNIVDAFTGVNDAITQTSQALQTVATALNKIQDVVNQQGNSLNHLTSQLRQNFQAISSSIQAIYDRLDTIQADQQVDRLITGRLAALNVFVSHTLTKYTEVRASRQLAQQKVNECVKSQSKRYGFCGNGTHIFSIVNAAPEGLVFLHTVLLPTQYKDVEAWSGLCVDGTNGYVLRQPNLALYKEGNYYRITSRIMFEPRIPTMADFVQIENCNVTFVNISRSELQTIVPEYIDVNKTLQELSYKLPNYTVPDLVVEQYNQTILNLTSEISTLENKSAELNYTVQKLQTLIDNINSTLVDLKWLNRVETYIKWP

[3] = target: SARS-CoV-2 spike receptor binding domain (RBD), recombinant (SARS-CoV-2, UniProt P0DTC2 319-541)
[4] = target: SARS-CoV-2 spike N-terminal domain (NTD), recombinant (SARS-CoV-2, UniProt P0DTC2 14-305)

Measured: binding result

B1: COV57-19 (antibody, V domains shown)
VH: QVQLQESGPGLVKPSGTLSLTCAVSGDSISSSNWWSWVRQPPGKGLEWIGEIYQSGTTNNNPSLKSRVTISIDKSKNQFSLNLTSVTAADTAVYYCARAPLVFRSYGMDVWGQGTTVTVSS
VL: DIQMTQSPSSLSASVGDRVTITCRASQTIRTYLNWYQQKPGKAPKLLIYDASNLQSGVPSRFSGSGSGTDFTLTISSLEPEDFATYYCQQSYITPPWTFGQGTKVEIK
no binding (tested: 200 µg/mL): [1] | [2] | [3] | [4]

B2: COV49-28 (antibody, V domains shown)
VH: GVQLLESGGGLAQPGGSLKLSCVASGFSFNDYAMTWVRRPPGKGLEWVSAVSSGGQTSYSTDSVKGRFTISRDNSKNTLYLQMSSLRAEDTAIYYCVKGAFYNILSSIIVEGDYWGQGTLVTVSS
VL: GVVLTQSPLSLPVTLGQPASISCRSSQSLVFSDGKTYLNWFQQRPGQSPRRLIYQVSNRDPGVPDRFSGSGSGTDFTLKISRVEAEDVGVYYCMQGTHWLSITFGQGTRLEIK
no binding (tested: 200 µg/mL): [1] | [2] | [3] | [4]

B3: COV49-30 (antibody, V domains shown)
VH: EVQLLESGGGLVQPGGSLRVSCTVSGFTFSDYSMSWVRQAPGKGLDWVSAISGTGETAYYADFVKGRFTSSRDNSKNTVYLQMNSLRGEDTAVYYCVKGVFYNILSSIIVEGDYWGQGTLVTVSS
VL: GVVMTQSPLSLPVTLGQPASISCRSSQSLVFSDGNTYLNWFQQRPGQSPRRLIYKVSKRDSGVPDRFSGSGSGTDFTLTISRVEAEDVGVYYCMQGTHWLSITFGQGTRLEIK
no binding (tested: 200 µg/mL): [1] | [2] | [3] | [4]

B4: COV49-07 (antibody, V domains shown)
VH: EVQLLESGGGLVQPGGSLRVSCTVSGFTFSDYSMSWVRQAPGKGLEWVSAISGTGETAYYADFVKGRFTSSRDNSKNTLYLQMNTLRGEDTAVYYCVKGAFYNILSSIIVEGDYWGQGTLVTVSS
VL: GVVMTQSPLSLPVTLGQPASISCRSSQSLVFSDGNTYLNWFQQRPGQSPRRLIYKVSERDSGVPDRFSGSGSGTDFTLTISRVEAEDVGVYYCMQGTHWLSITFGQGTRLEIK
no binding (tested: 200 µg/mL): [1] | [2] | [3] | [4]

B5: COV49-33 (antibody, V domains shown)
VH: EVQLLESGGGLAQPGGSLRLSCVASGFSFDDYAMTWVRQPPGKGLEWVSAVSGGGQTTYSTDSVKGRFTTSRDNSKNTLYLQMNSLRGEDTAVYYCVKGAFYNILSSIIVEGDYWGQGTLVTVSS
VL: VVVLTQSPLSLPVTLGQPASVSCRSSQSLVFSDGNTYLNWFQQRPGQSPRRLIYQVSNRDPGVPDRFSGSGSGTDFTLKISRVEAEDVGVYYCMQGTHWLSITFGQGTRLEIK
no binding (tested: 200 µg/mL): [1] | [2] | [3] | [4]

B6: COV49-47 (antibody, V domains shown)
VH: EVQLLESGGGLAQPGGSLRLSCVASGFSFNDYAMAWVRQAPGKGLEWVSAVSGGGQTTYSTDSVKGRFTTSRDNSKNTLYLQMNGLRAEDAAVYYCVKGAFYNILSSIIVEGDNWGQGTLVTVSS
VL: GVVLTQSPLSLPVTLGQPASISCRSSQSLVFSDGNTYLNWFQQRPGQSPRRLIYQVSNRDPGVPDRFSGSGSGTDFTLKISRVEAEDVGVYYCMQGTHWLSITFGQGTRLEIK
no binding (tested: 200 µg/mL): [1] | [2] | [3] | [4]

B7: COV49-18 (antibody, V domains shown)
VH: EVQLLESGGGLVQPGGSLRVSCAVSGFTFSNYAMSWVRQAPGKGLDWVSAISGSGETRYYADFVKGRFTISRDNSKNTLYLQMNSLRGEDTAVYYCVKGAFYNILSSIIVEGDYWGQGTLVTVSS
VL: DVVMTQSPLSLPVTLGQPASISCRSSQSLVFSDGNTYLNWFQQRPGQSPRRLIYKVSKRDSGVPDRFSGSGSGTDFTLKISRVEAEDVGVYYCMQGTHWLSITFGQGTRLEIK
no binding (tested: 200 µg/mL): [1] | [2] | [3] | [4]

B8: COV49-06 (antibody, V domains shown)
VH: EVQLLESGGGLVRPGGSLRLSCAASGFTFTNYAMSWVRQAPGKGLEWVSAISGGDGRTSYYADSVKGRFTSSRDNSKNTLYLQMNSLRAEDTAVYYCAKGAFYNILSSIIVEGDYWGQGTLVTVSS
VL: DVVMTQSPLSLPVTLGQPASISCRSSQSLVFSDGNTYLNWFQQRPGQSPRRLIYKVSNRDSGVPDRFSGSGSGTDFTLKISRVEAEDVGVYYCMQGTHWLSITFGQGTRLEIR
no binding (tested: 200 µg/mL): [1] | [2] | [3] | [4]

— patent publication US20250145690A1 (US Dept. of Health and Human Services, published 2025)
